# Measurements published in publication PMC7278562, “A high‐affinity, bivalent PDZ domain inhibitor complexes PICK1 to alleviate neuropathic pain” (EMBO Molecular Medicine, 2020).
# Ends that are not written are not given here. Peptide text beside a SMILES is read from it. * marks the point of attachment. 3‑phenylpropyl = c1ccc(CCC*)cc1; Cyclohexylmethyl = C1CCC(C*)CC1; Bn = c1ccc(C*)cc1
# B1: DAT C4 peptide, N-alkylated, R drawn (3-phenylpropyl) (peptide)
# peptide: {3‑phenylpropyl}-WLKV
# B2: DAT C4 peptide, N-alkylated, R drawn (benzyl) (peptide)
# peptide: Bn-WLKV
# B3: DAT C4 peptide, no modification (peptide)
# peptide: WLKV
# B4: DAT C4 peptide, N-alkylated, R drawn (cyclohexylmethyl) (peptide)
# peptide: Cyclohexylmethyl-WLKV
# B5: DAT C4 peptide, N-acetylated, R = COCH3 (peptide)
# peptide: Ac-WLKV
# B6: DAT C4 peptide, N-alkylated, R drawn (2-cyclohexylethyl) (peptide)
# peptide: {2‑cyclohexylethyl}-WLKV
# B7: DAT C4 peptide, N-alkylated, R = CH2CH3 (peptide)
# peptide: Et-WLKV
# B8: DAT C4 peptide, N-alkylated, R drawn (2-phenylethyl) (peptide)
# peptide: {2‑phenylethyl}-WLKV
# B9: DAT C4 peptide, N-alkylated, R = (CH2)3CH3 (peptide)
# peptide: {n‑butyl}-WLKV
# B10: DAT C4 peptide, N-alkylated, R drawn (2-naphthylethyl) (peptide)
# peptide: {2‑(naphthyl)ethyl}-WLKV
# modifications: not fully specified
# B11: DAT C4 peptide, N-alkylated, R = CH3 (peptide)
# peptide: methyl-WLKV
# B12: DAT C4 peptide, N-alkylated, R = (CH2)2CH3 (peptide)
# peptide: {n‑propyl}-WLKV
# Tests used:
# PICK1 [1] = molecular target: T1, PICK1 (Rattus norvegicus, UniProt Q9EP80); conditions: best-known binder of the PICK1 PDZ domain; ref Madsen et al, 2005; cited from earlier work
# T1 construct: GST (inferred from pET41 and Glutathione-Sepharose capture) (cleaved yes); made in house; host or cells: Escherichia coli BL21-DE3-pLysS
# From the text: To this end, we took advantage of a fluorescence polarization (FP) competition assay using a fluorescent tracer peptide corresponding to the C‐terminal 11 residues of the DAT (OrG‐C11) (Fig EV1A).
# [2] = test system: mechanical allodynia in SNI mice; assay: Spared nerve injury (SNI) model, von Frey paw withdrawal threshold; format: in vivo
# PICK1 [3] = molecular target: T1, PICK1; assay: FP saturation binding; conditions: Appendix Fig S2, n = 3
# Procedure: Protein expression was induced with 1 mM IPTG and grown overnight at 20°C. […] 1 l culture at pH 7.4. Suspended pellet was frozen at −80°C. The bacterial suspension was thawed and cleared by centrifugation (F20 rotor, 36,000 × g for 30 min at 4°C). The supernatant was collected and incubated with Glutathione‐Sepharose 4B beads (GE Healthcare) for 2 h at 4°C under gentle rotation. […] Washed beads were transferred to a PD10 gravity column and were washed additionally three times. Bead solution was incubated with thrombin overnight at 4°C under gentle rotation.
# The data were plotted using GraphPad Prism 8.3 and fitted to either a sigmoidal dose response for saturation experiments or One site competition for competition experiments. Kis were automatically calculated using the Cheng–Prusoff equation.
# [4] = 20 μM i.t.; for presence in spinal cord after i.t. injection: naïve mice, 1 h after injection, fluorescence
# Procedure: All spinal cords were isolated by hydraulic extrusion and post‐fixed in PFA 4% for 8 h. Spinal cords were subsequently cryoprotected in 30% sucrose, embedded in Tissue‐Tek® OCT, and sliced at 20 μm thickness by Cryostat Leica CM3050 S.
# Epifluorescence microscopy was performed using a Zeiss axioscan.Z1, with a plan‐apochromat 10×/0.45 objective (Carl Zeiss). […] All channels were imaged covering a total of around 6 μm of the 20‐μm‐thick spinal cord slices.
# hippocampal neurons = assay: Membrane permeability in dissociated hippocampal neurons (confocal, DiO membrane dye); conditions: 21 DIV neurons, 1 h, 37°C, 5 μM TMR-labeled peptide (legend: TMR-C5 20 μM), confocal fluorescence
# Plasma stability = format: in vitro ADME; conditions: human plasma (3H biomedical) with 2% DMSO, 50 μM peptide, 37°C, GnHCl/TCA-acetone work-up, C8 RP-HPLC (UPLC), normalized to T = 0, mean, n ≥ 3, read-out: peptide remaining after incubation with human plasma
# Procedure: The peptides were dissolved to a final concentration of 50 μM in human plasma (3H biomedical, Uppsala, Sweden) containing 2% DMSO and incubated at 37°C. Aliquots (45 μl) were added directly to 26 mg guanidine hydrochloride (GnHCl), vortexed, and incubated for 2 min. 90 μl of 10% trichloroacetic acid (TCA) in acetone was then added, and the suspension was incubated at 5°C for 24 h.
# The suspension was centrifuged at 18,000 g for 5 min. The supernatants were quantified by analytical C8 RP‐HPLC and normalized to the compound concentration at T = 0. Ligand recovery was > 82%.
# [5] = molecular target: PICK1 (protein interacting with C kinase 1), purified recombinant rat (rat) (UniProt Q9EP80); assay: fluorescence polarisation; competition (Ki with SEM interval); tracer and conditions not stated
# [6] = molecular target: PICK1 (protein interacting with C kinase) (rat) (UniProt Q9EP80); assay: fluorescence polarisation; competition; fixed PICK1 and a fluorescent tracer (not named for this series) against increasing unlabeled peptide; 20 min on ice; Ki by Cheng-Prusoff
# [7] = molecular target: OrG-C11, Oregon Green labelled C-terminal 11 residues of the dopamine transporter; assay: fluorescence polarisation; saturation; fluorescent peptide fixed at 20 nM, increasing PICK1; 0.01% Triton X-100 (PICK1 a dimer); KD from a log dose-response fit
# [8] = molecular target: Org-GluA2 C11, Oregon Green labelled C-terminal 11 residues of GluA2; assay: as above
# [9] = molecular target: DAT C13 C-terminal 13 residues (Homo sapiens) (UniProt Q01959); conditions: cited from earlier work
# [10] = molecular target: PICK1 (protein interacting with C kinase) (rat) (UniProt Q9EP80); assay: fluorescence polarisation
# [11] = molecular target: PICK1 (protein interacting with C kinase) (rat) (UniProt Q9EP80); assay: fluorescence polarisation; remark: listed apart in the source
# [12] = molecular target: PICK1 (protein interacting with C kinase) (rat) (UniProt Q9EP80); assay: SEC; analytical SEC of purified PICK1 (40 uM in the titration) alone or incubated with peptide; absorbance at 280 nm and, for the TMR peptide, 544/546 nm
molecule,measurement,setting,value
CC(C)C[C@H](NC(=O)[C@H](Cc1c[nH]c2ccccc12)NC(=O)[C@H](Cc1c[nH]cn1)NC(=O)[C@H](CCCNC(=N)N)NC(=O)[C@H](CC(C)C)NC(=O)[C@@H](NC(=O)[C@H](Cc1ccccc1)NC(=O)[C@H](CCC(N)=O)NC(=O)[C@H](CCCNC(=N)N)NC(=O)[C@@H](NC(=O)[C@@H](N)CCC(=O)O)C(C)C)[C@@H](C)O)C(=O)N[C@@H](CCCCN)C(=O)N[C@H](C(=O)O)C(C)C [DAT C13] (H-EVRQFTLRHWLKV-OH),Ki,PICK1 [1],1 µM
CCOC(=O)NC(=O)/C(C#N)=C/c1ccc(Cl)c(Cl)c1 [FSC231],effect on PWT / ipsilateral paw hypersensitivity,"[2]; i.t. 20 μM, initiation stage (2 days after injury), n = 8 mice/group",did not significantly change PWT
CC(C)C[C@H](NC(=O)[C@H](Cc1c[nH]c2ccccc12)NC(=O)[C@H](Cc1c[nH]cn1)NC(=O)CCOCCOCCN(CCOCCOCCC(=O)N[C@@H](Cc1c[nH]cn1)C(=O)N[C@@H](Cc1c[nH]c2ccccc12)C(=O)N[C@@H](CC(C)C)C(=O)N[C@@H](CCCCN)C(=O)N[C@H](C(=O)O)C(C)C)C(=O)[C@H](CCCNC(=N)N)NC(=O)[C@H](CCCNC(=N)N)NC(=O)[C@H](CCCNC(=N)N)NC(=O)[C@H](CCC(N)=O)NC(=O)[C@H](CCCNC(=N)N)NC(=O)[C@H](CCCNC(=N)N)NC(=O)[C@H](CCCCN)NC(=O)[C@H](CCCCN)NC(=O)[C@H](CCCNC(=N)N)NC(=O)CNC(=O)[C@H](Cc1ccc(O)cc1)NC(=O)c1ccc2c(c1)C(=O)OC21c2ccc(N(C)C)cc2Oc2cc(N(C)C)ccc21)C(=O)N[C@@H](CCCCN)C(=O)N[C@H](C(=O)O)C(C)C [TMR-Tat-P4-(C5)2],affinity from saturation binding curves,PICK1 [3],low nanomolar affinity
same,time of maximal accumulation in cells,"[4]; SNI mice, time points 0, 30, 60, 120 min",60 min
same,cell type of peptide signal in gray matter,"[4]; SNI mice, NeuN and GFAP staining",exclusively confined toward neurons
same,presence in spinal cord after i.t. injection,[4],clearly visible in both the ventral and dorsal parts of the spinal cord
same,membrane penetration / labeling of neurons,hippocampal neurons,labeled neurons
CC(C)C[C@H](NC(=O)[C@H](Cc1c[nH]c2ccccc12)NC(=O)[C@H](Cc1cnc[nH]1)NC(=O)[C@H](CCCNC(=N)N)NC(=O)[C@H](CCCNC(=N)N)NC(=O)[C@H](CCCNC(=N)N)NC(=O)[C@H](CCC(N)=O)NC(=O)[C@H](CCCNC(=N)N)NC(=O)[C@H](CCCNC(=N)N)NC(=O)[C@H](CCCCN)NC(=O)[C@H](CCCCN)NC(=O)[C@H](CCCNC(=N)N)NC(=O)CNC(=O)[C@@H](N)Cc1ccc(O)cc1)C(=O)N[C@@H](CCCCN)C(=O)N[C@H](C(=O)O)C(C)C [Tat-C5],"remaining at 24 h, 50 μM",Plasma stability,~5%
NCC1(CC(=O)O)CCCCC1 [gabapentin],efficacy 14 days after nerve injury,"[2]; i.p. 30 mg/kg, chronic phase, n = 4 per gender",comparable efficacy
same,ipsilateral paw threshold,"[2]; i.p. 30 mg/kg, initiation stage (2 days after injury), at 1, 2, 3 h, n = 4 mice",full recovery
"DAT C3 peptide, N-acetylated, R = COCH3",Ki,[5],3.8 µM
"DAT C3 peptide, N-alkylated, R = CH3",Ki,[5],9.38 µM
"DAT C3 peptide, N-alkylated, R drawn (cyclohexylmethyl)",Ki,[5],6.82 µM
"DAT C3 peptide, no modification",Ki,[5],4.1 µM
P4‐(C5)2 (peptide),Ki,[6],0.098 µM
P28‐(C5)2 (peptide),Ki,[6],0.593 µM
PEG0‐(HWLKV)2 (peptide),fold increase in affinity over C5,[6],> 10 fold
PEG8‐(HWLKV)2 (peptide),fold increase in affinity over C5,[6],> 10 fold
PEG12‐(HWLKV)2 (peptide),fold increase in affinity over C5,[6],> 10 fold
"PICK1 (protein interacting with C kinase 1), purified recombinant rat (from UniProt Q9EP80 1-416) (natural protein)",Kd,[7],0.44 µM
same,Kd,[8],1.53 µM
PICK1 PDZ (from UniProt Q9NRD5),Ki,[9],1 µM
TMR‐Ahx‐YGRKKRRQRRR‐HWLKV [TMR-Tat-C5],presence in spinal cord after i.t. injection,[4],clearly visible in both the ventral and dorsal parts of the spinal cord
Tat‐P4‐(C5)2 (peptide),Ki,[10],0.0062 µM
same,fold affinity gain over C5,[10],> 300 fold
same,Ki,[11],0.0017 µM
same,stoichiometry N (Tat‐P4‐(C5)2 per PICK1),[12],0.25
B1,Ki,[5],38.6 µM
B2,Ki,[5],24.5 µM
B3,Ki,[5],5.69 µM
B4,Ki,[5],15.1 µM
B5,Ki,[5],3.49 µM
B6,Ki,[5],31.8 µM
B7,Ki,[5],30 µM
B8,Ki,[5],26.2 µM
B9,Ki,[5],45.3 µM
B10,Ki,[5],48 µM
B11,Ki,[5],18.8 µM
B12,Ki,[5],46.6 µM
